These results are taken from paper PMC12130729, “CD98hc, a novel of galectin-8 receptor, binds to galectin-8 in an N-glycosylation-dependent manner” (Acta Biochimica et Biophysica Sinica, 2025).

In experiment [1] the target is Extracellular domain of CD98hc (CD98hc-ED), His-tagged (human) (UniProt P08195). Put plainly: MST; His-tagged CD98hc-ED (50 nM) labelled with RED-tris-NTA 2nd generation as target; Gal-8, Gal-8N or Gal-8C titrated 50 μM to 12.21 nM (1:1 dilution series); Monolith NT.115, room temperature, LED 60%, MST power medium; KD fit; three independent experiments.
The target in experiment [2] is T1, Extracellular domain of CD98hc (CD98hc-ED), His-tagged (human, UniProt P08195 105-529, N-glycosylated (glycosylated CD98hc-ED)).
T1 construct: CD98hc, human (cDNA from HeLa cells), extracellular domain; the printed primers encode an added start Met followed by RAPRCR, and end with RFPYAA (the C-terminus) followed by six His codons and a stop; His6 and its C-terminal position are read from the reverse primer; the text says only 'with a His-tag'; No signal peptide is encoded by the primers. 'Free CD98hc-ED' is this protein after PNGase F …
T1 sequence (looked up): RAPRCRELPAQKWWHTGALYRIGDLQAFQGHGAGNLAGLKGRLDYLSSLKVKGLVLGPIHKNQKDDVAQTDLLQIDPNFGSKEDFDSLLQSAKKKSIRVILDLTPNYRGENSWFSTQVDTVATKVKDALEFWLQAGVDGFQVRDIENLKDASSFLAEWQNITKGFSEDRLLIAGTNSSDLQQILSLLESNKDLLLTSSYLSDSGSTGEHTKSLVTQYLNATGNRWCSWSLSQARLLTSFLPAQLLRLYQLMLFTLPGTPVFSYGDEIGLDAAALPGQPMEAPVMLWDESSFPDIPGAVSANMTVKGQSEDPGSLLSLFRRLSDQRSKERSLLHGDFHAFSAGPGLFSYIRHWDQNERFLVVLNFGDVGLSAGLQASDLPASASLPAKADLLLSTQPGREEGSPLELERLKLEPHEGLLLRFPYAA
The experiment is described as above. As to conditions: both partners purified.

Broadly, the Kd is the equilibrium constant for the complex coming apart. Read a high Kd as lower affinity. In turn, “Recombinant Gal-8 (His-Gal-8) (from UniProt O00214 1-317) (natural protein)” yielded a Kd in experiment [1] of 1510 nM.

B1: Recombinant Gal-8C (His-Gal-8C) (domain or fragment, human, UniProt O00214 187-317, looked up)
chain: FAARLNTPMGPGRTVVVKGEVNANAKSFNVDLLAGKSKDIALHLNPRLNIKAFVRNSFLQESWGEEERNITSFPFSPGMYFEMIIYCDVREFKVAVNGVHSLEYKHRFKELSSIDTLEINGDIHLLEVRSW
notes: Galectin-8, human, C-terminal carbohydrate recognition domain (Gal-8C); also called C-terminal carbohydrate recognition domain of Gal-8; source: E. coli BL21 (DE3) pLysS, as previously described by Si et al. [9]
B1: the affinity in experiment [2], expressed as Kd, was 10700 ± 1690 nM.

B2: Recombinant Gal-8N (His-Gal-8N) (domain or fragment, human, UniProt O00214 1-152, looked up)
chain: MMLSLNNLQNIIYNPVIPFVGTIPDQLDPGTLIVIRGHVPSDADRFQVDLQNGSSMKPRADVAFHFNPRFKRAGCIVCNTLINEKWGREEITYDTPFKREKSFEIVIMVLKDKFQVAVNGKHTLLYGHRIGPEKIDTLGIYGKVNIHSIGFS
notes: Galectin-8, human, N-terminal carbohydrate recognition domain (Gal-8N); also called N-terminal carbohydrate recognition domain of Gal-8; source: E. coli BL21 (DE3) pLysS, as previously described by Si et al. [9]
In turn, B2 yielded a dissociation constant Kd in experiment [2] of 220 ± 30 nM.
